In the series the test system is Escherichia coli TOP10. Put plainly: shrunken log2 fold change of peptide-encoding DNA abundance (4.5 h post-induction vs induction); higher = less antimicrobial activity (less host growth inhibition). To be noted: time post-induction: 4.5 h; library: site-saturation at positions 5, 18, 19, 20.
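Also: peptides expressed intracellularly from a pBAD plasmid library in pooled LB shake-flask culture, induced with 0.3% L-arabinose, DNA abundance read by NGS, three biological replicates, DESeq2 with apeglm shrinkage.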

For RRIRIRPPRLPRPRPRPYRGPRP, the “shrunken log2 fold change” value is -0.155. On to RRIRSRPPRLPRPRPRPLSCPRP, for which the “shrunken log2 fold change” value stood at 0.0284. Take RRIRFRPPRLPRPRPRPPFCPRP: the “shrunken log2 fold change” value is 0.0782.

With RRIRYRPPRLPRPRPRPHNQPRP, the “shrunken log2 fold change” value was -0.753. Take RRIRFRPPRLPRPRPRPTVWPRP: the “shrunken log2 fold change” value is 0.19. Take RRIRIRPPRLPRPRPRPMPMPRP: the “shrunken log2 fold change” value is -0.0159. For the sequence RRIRDRPPRLPRPRPRPELMPRP, the “shrunken log2 fold change” value is 1.68. Take RRIRWRPPRLPRPRPRPYAGPRP: the “shrunken log2 fold change” value is 0.0399.

Turning to RRIRQRPPRLPRPRPRPLKFPRP, the “shrunken log2 fold change” value is -0.27. As for RRIRMRPPRLPRPRPRPGTQPRP, the “shrunken log2 fold change” value was determined as 0.407.

For RRIRIRPPRLPRPRPRPWSIPRP, the “shrunken log2 fold change” value was -0.211. On to RRIRIRPPRLPRPRPRPLYPPRP, for which the “shrunken log2 fold change” value is -0.561. Consider RRIRDRPPRLPRPRPRPGAEPRP, for which the “shrunken log2 fold change” value was 1.08.

For the sequence RRIRGRPPRLPRPRPRPLCQPRP, the “shrunken log2 fold change” value was found to be 0.712. In the case of RRIRIRPPRLPRPRPRPWEAPRP, the “shrunken log2 fold change” value was determined as 0.0112. For RRIRIRPPRLPRPRPRPTVKPRP, the “shrunken log2 fold change” value is -0.468. Take RRIRFRPPRLPRPRPRPYPSPRP: the “shrunken log2 fold change” value was -0.018.

As to RRIRCRPPRLPRPRPRPEICPRP, the “shrunken log2 fold change” value was 0.0631.

Take RRIRYRPPRLPRPRPRPARIPRP: the “shrunken log2 fold change” value stood at 0.0141. On to RRIRCRPPRLPRPRPRPNFLPRP, for which the “shrunken log2 fold change” value is -0.265. On to RRIRFRPPRLPRPRPRPLHEPRP, for which the “shrunken log2 fold change” value was 0.0931. Take RRIRERPPRLPRPRPRPGVPPRP: the “shrunken log2 fold change” value was determined as 0.149.

Regarding RRIRFRPPRLPRPRPRPKPWPRP, the “shrunken log2 fold change” value amounted to 0.489.

Turning to RRIRDRPPRLPRPRPRPPDIPRP, the “shrunken log2 fold change” value was -0.0754.

Consider RRIRCRPPRLPRPRPRPALLPRP, for which the “shrunken log2 fold change” value came out at 0.292. On to RRIRPRPPRLPRPRPRPGKAPRP, for which the “shrunken log2 fold change” value stood at 0.37. Regarding RRIRLRPPRLPRPRPRPFMEPRP, the “shrunken log2 fold change” value was -0.35. As for RRIRIRPPRLPRPRPRPWVSPRP, the “shrunken log2 fold change” value is -0.119.

Consider RRIRDRPPRLPRPRPRPVDVPRP, for which the “shrunken log2 fold change” value was -0.185. The result for RRIRERPPRLPRPRPRPDQHPRP reads -0.165; that for RRIRWRPPRLPRPRPRPFSSPRP, -0.374. As for RRIRSRPPRLPRPRPRPMYQPRP, the “shrunken log2 fold change” value was -0.594. To RRIRSRPPRLPRPRPRPCYDPRP belongs -0.438; to RRIRCRPPRLPRPRPRPFHFPRP, -0.954. As for RRIRDRPPRLPRPRPRPNKVPRP, the “shrunken log2 fold change” value is -0.494. Regarding RRIRCRPPRLPRPRPRPWNTPRP, the “shrunken log2 fold change” value is -0.575. With RRIRMRPPRLPRPRPRPDLAPRP, the “shrunken log2 fold change” value was 1.4. For the sequence RRIRFRPPRLPRPRPRPAANPRP, the “shrunken log2 fold change” value was 0.22. To RRIRTRPPRLPRPRPRPAQRPRP belongs 0.356; to RRIRHRPPRLPRPRPRPRYFPRP, -0.439; to RRIRPRPPRLPRPRPRPVKKPRP, -0.016.

Regarding RRIRYRPPRLPRPRPRPKNPPRP, the “shrunken log2 fold change” value was -0.315. RRIRWRPPRLPRPRPRPRVCPRP: the “shrunken log2 fold change” value was found to be 0.347.

As to RRIRMRPPRLPRPRPRPNLTPRP, the “shrunken log2 fold change” value came out at 0.0283. To RRIRHRPPRLPRPRPRPIVSPRP belongs -0.0219. As for RRIRSRPPRLPRPRPRPQMYPRP, the “shrunken log2 fold change” value was -0.159.

Take RRIRMRPPRLPRPRPRPNQSPRP: the “shrunken log2 fold change” value was found to be 0.176. For the sequence RRIRQRPPRLPRPRPRPSYTPRP, the “shrunken log2 fold change” value was -1.34. Take RRIRTRPPRLPRPRPRPWSHPRP: the “shrunken log2 fold change” value was -0.113. In the case of RRIRDRPPRLPRPRPRPMDRPRP, the “shrunken log2 fold change” value is -0.01.

For the sequence RRIRHRPPRLPRPRPRPGSWPRP, the “shrunken log2 fold change” value was 0.112. For RRIRIRPPRLPRPRPRPELEPRP, the “shrunken log2 fold change” value amounted to 0.0281. Take RRIRPRPPRLPRPRPRPDKFPRP: the “shrunken log2 fold change” value is -0.233.

For RRIRWRPPRLPRPRPRPFTQPRP, the “shrunken log2 fold change” value is -0.0585.

In the case of RRIRLRPPRLPRPRPRPNPCPRP, the “shrunken log2 fold change” value was -0.398.

Turning to RRIRRRPPRLPRPRPRPALTPRP, the “shrunken log2 fold change” value turned out to be 0.258.

On to RRIRMRPPRLPRPRPRPTLFPRP, for which the “shrunken log2 fold change” value is 0.428.

Consider RRIRERPPRLPRPRPRPLNIPRP, for which the “shrunken log2 fold change” value is -0.662. RRIRSRPPRLPRPRPRPVQPPRP: the “shrunken log2 fold change” value amounted to 0.107. As for RRIRMRPPRLPRPRPRPVFYPRP, the “shrunken log2 fold change” value was -0.0165. For the sequence RRIRSRPPRLPRPRPRPHTNPRP, the “shrunken log2 fold change” value is -0.335. To RRIRHRPPRLPRPRPRPKCQPRP belongs -0.0621; to RRIRTRPPRLPRPRPRPCLLPRP, -0.413. For RRIRMRPPRLPRPRPRPTAPPRP, the “shrunken log2 fold change” value stood at 0.905.

On to RRIRERPPRLPRPRPRPFMEPRP, for which the “shrunken log2 fold change” value is -0.00484. Consider RRIRARPPRLPRPRPRPKRCPRP, for which the “shrunken log2 fold change” value amounted to 0.079. To RRIRGRPPRLPRPRPRPMSLPRP belongs -0.0288; to RRIRLRPPRLPRPRPRPFVWPRP, 0.118; to RRIRFRPPRLPRPRPRPSNWPRP, -0.284. Regarding RRIRSRPPRLPRPRPRPPYIPRP, the “shrunken log2 fold change” value is -0.296.

As for RRIRCRPPRLPRPRPRPIHDPRP, the “shrunken log2 fold change” value is -0.264. RRIRNRPPRLPRPRPRPEDRPRP: the “shrunken log2 fold change” value is 0.0787. As to RRIRSRPPRLPRPRPRPTLVPRP, the “shrunken log2 fold change” value is 0.366. As to RRIRFRPPRLPRPRPRPWRMPRP, the “shrunken log2 fold change” value was -0.166. On to RRIRMRPPRLPRPRPRPCMEPRP, for which the “shrunken log2 fold change” value is 0.112. On to RRIRFRPPRLPRPRPRPSWAPRP, for which the “shrunken log2 fold change” value was -0.308. On to RRIRRRPPRLPRPRPRPEIRPRP, for which the “shrunken log2 fold change” value is 0.0292. Regarding RRIRHRPPRLPRPRPRPLWEPRP, the “shrunken log2 fold change” value was determined as 0.0119. On to RRIRRRPPRLPRPRPRPDEVPRP, for which the “shrunken log2 fold change” value is 0.61. RRIRVRPPRLPRPRPRPPCIPRP: the “shrunken log2 fold change” value is -0.00689. The result for RRIRCRPPRLPRPRPRPDSCPRP reads 0.0373; that for RRIRVRPPRLPRPRPRPQLRPRP, 0.0648; that for RRIRSRPPRLPRPRPRPQQRPRP, 0.153. With RRIRWRPPRLPRPRPRPAKRPRP, the “shrunken log2 fold change” value was -0.0468. With RRIRHRPPRLPRPRPRPLASPRP, the “shrunken log2 fold change” value was -0.0121. As to RRIRDRPPRLPRPRPRPWYLPRP, the “shrunken log2 fold change” value is -0.11. Regarding RRIRWRPPRLPRPRPRPEFVPRP, the “shrunken log2 fold change” value came to 0.423.

Regarding RRIRIRPPRLPRPRPRPMLDPRP, the “shrunken log2 fold change” value worked out at 0.0726. For RRIRPRPPRLPRPRPRPTAWPRP, the “shrunken log2 fold change” value turned out to be 0.666.

In the case of RRIRCRPPRLPRPRPRPCYFPRP, the “shrunken log2 fold change” value is -0.779.

As to RRIRTRPPRLPRPRPRPFSRPRP, the “shrunken log2 fold change” value was determined as 0.0136. Consider RRIRPRPPRLPRPRPRPFMYPRP, for which the “shrunken log2 fold change” value was -0.0369. RRIRQRPPRLPRPRPRPYSTPRP: the “shrunken log2 fold change” value is -0.0896.

For RRIRVRPPRLPRPRPRPQQLPRP, the “shrunken log2 fold change” value is -0.0555.

For RRIRWRPPRLPRPRPRPNSGPRP, the “shrunken log2 fold change” value is 0.0642. For RRIRERPPRLPRPRPRPTFDPRP, the “shrunken log2 fold change” value was -0.066.

For RRIRRRPPRLPRPRPRPPLQPRP, the “shrunken log2 fold change” value was 0.682. To RRIRQRPPRLPRPRPRPKPCPRP belongs -0.273.

Regarding RRIRARPPRLPRPRPRPYAFPRP, the “shrunken log2 fold change” value is -0.125. Take RRIRCRPPRLPRPRPRPIFIPRP: the “shrunken log2 fold change” value was -0.339. As to RRIRCRPPRLPRPRPRPKFAPRP, the “shrunken log2 fold change” value worked out at 0.0822. The result for RRIRDRPPRLPRPRPRPTKGPRP reads 0.0341. For RRIRGRPPRLPRPRPRPDTFPRP, the “shrunken log2 fold change” value stood at 0.43. Turning to RRIRERPPRLPRPRPRPNCNPRP, the “shrunken log2 fold change” value is -0.848. For the sequence RRIRWRPPRLPRPRPRPPLYPRP, the “shrunken log2 fold change” value amounted to 0.188. The result for RRIRSRPPRLPRPRPRPDLPPRP reads -0.246. Turning to RRIRMRPPRLPRPRPRPCCRPRP, the “shrunken log2 fold change” value was determined as 0.0467. With RRIRTRPPRLPRPRPRPMMYPRP, the “shrunken log2 fold change” value is -0.00147. Regarding RRIRKRPPRLPRPRPRPEKDPRP, the “shrunken log2 fold change” value was 0.518. RRIRLRPPRLPRPRPRPMHPPRP: the “shrunken log2 fold change” value was -0.0318. Turning to RRIRLRPPRLPRPRPRPYPGPRP, the “shrunken log2 fold change” value was -0.251.

In the case of RRIRYRPPRLPRPRPRPYNIPRP, the “shrunken log2 fold change” value is -0.426. The result for RRIRCRPPRLPRPRPRPTAGPRP reads 0.411; that for RRIRLRPPRLPRPRPRPFPGPRP, 0.143.

For the sequence RRIRTRPPRLPRPRPRPEVHPRP, the “shrunken log2 fold change” value came to 0.00869.

For the sequence RRIRQRPPRLPRPRPRPQRQPRP, the “shrunken log2 fold change” value was 0.0235. As to RRIRQRPPRLPRPRPRPAAGPRP, the “shrunken log2 fold change” value worked out at 0.0657. Consider RRIRPRPPRLPRPRPRPDQTPRP, for which the “shrunken log2 fold change” value was determined as 0.0118. Take RRIRVRPPRLPRPRPRPGKFPRP: the “shrunken log2 fold change” value is -0.17. Consider RRIRCRPPRLPRPRPRPYYGPRP, for which the “shrunken log2 fold change” value was -0.199. To RRIRARPPRLPRPRPRPNIWPRP belongs 0.133; to RRIRGRPPRLPRPRPRPGVLPRP, 0.912; to RRIRDRPPRLPRPRPRPVNHPRP, -0.514.

With RRIRCRPPRLPRPRPRPFYHPRP, the “shrunken log2 fold change” value was -0.668. On to RRIRQRPPRLPRPRPRPAVFPRP, for which the “shrunken log2 fold change” value is -0.0406.
